Results as given in patent US20150344570A1 (published 2015).

T1: FcγRIIb extracellular domain with C-terminal His tag (human, UniProt P31994 43-217)
T1 construct: extracellular domain; soluble analyte in Biacore; also called FcgRIIb; not shown: His tag at the C terminus
T1 sequence (looked up): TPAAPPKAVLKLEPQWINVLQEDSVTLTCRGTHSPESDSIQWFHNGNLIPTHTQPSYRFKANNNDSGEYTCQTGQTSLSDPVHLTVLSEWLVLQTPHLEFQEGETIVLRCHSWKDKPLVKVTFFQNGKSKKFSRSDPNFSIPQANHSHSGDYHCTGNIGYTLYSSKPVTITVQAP

T2: FcγRIIb extracellular domain with C-terminal His tag (human, UniProt P31994 43-217)
T2 construct: extracellular domain; expressed in FreeStyle293 cells; analyte in Biacore; also called FcgRIIb; 2b
T2 sequence (looked up): T1 sequence (looked up)

B1: GpH7-A5/GpH7-B3 variant E269_19Q/GpL16-k0 (antibody, human IgG1, kappa)
heavy 1: not shown
heavy 2: not shown
light: DIVMTQSPLSLPVTPGEPASISCQASESLVHSNRNTYLHWYLQKPGQSPQLLIYKVSNRFSGVPDRFSGSGSGTDFTLKISRVEAEDVGVYYCSQNTHVPPTFGQGTKVEIERTVAAPSVFIFPPSDEQLKSGTASVVCLLNNFYPREAKVQWKVDNALQSGNSQESVTEQDSKDSTYSLSSTLTLSKADYEKHKVYACEVTHQGLSSPVTKSFNRGEC
notes: change in the GpH7-B3 H chain only; also called He Ab
B2: GpH7-A5/GpH7-B3 variant E269_20W/GpL16-k0 (antibody, human IgG1, kappa)
heavy 1: not shown
heavy 2: not shown
light: B1 light
notes: as for B1
B3: GpH7-A5/GpH7-B3 variant D265_14T/GpL16-k0 (antibody, human IgG1, kappa)
heavy 1: not shown
heavy 2: not shown
light: B1 light
notes: He Ab; IgG1, mutation in one H chain
B4: GpH7-A5/GpH7-B3 variant D265_15Y/GpL16-k0 (antibody, human IgG1, kappa)
heavy 1: not shown
heavy 2: not shown
light: B1 light
notes: as for B3
B5: GpH7-A5/GpH7-B3 variant D265_16H/GpL16-k0 (antibody, human IgG1, kappa)
heavy 1: not shown
heavy 2: not shown
light: B1 light
notes: as for B3
B6: GpH7-A5/GpH7-B3 variant D265_18N/GpL16-k0 (antibody, human IgG1, kappa)
heavy 1: not shown
heavy 2: not shown
light: B1 light
notes: as for B3
B7: GpH7-A5/GpH7-B3 variant D265_19Q/GpL16-k0 (antibody, human IgG1, kappa)
heavy 1: not shown
heavy 2: not shown
light: B1 light
notes: as for B3
B8: GpH7-A5/GpH7-B3 variant D265_20W/GpL16-k0 (antibody, human IgG1, kappa)
heavy 1: not shown
heavy 2: not shown
light: B1 light
notes: as for B3
B9: GpH7-A5/GpH7-B3 variant S239_20W/GpL16-k0 (antibody, human IgG1, kappa)
heavy 1: not shown
heavy 2: not shown
light: B1 light
notes: as for B3
B10: GpH7-A5/GpH7-B3 variant V266_01G/GpL16-k0 (antibody, human IgG1, kappa)
heavy 1: not shown
heavy 2: not shown
light: B1 light
notes: as for B3
B11: GpH7-A5/GpH7-B3 variant V266_04F/GpL16-k0 (antibody, human IgG1, kappa)
heavy 1: not shown
heavy 2: not shown
light: B1 light
notes: as for B3
B12: GpH7-A5/GpH7-B3 variant V266_05P/GpL16-k0 (antibody, human IgG1, kappa)
heavy 1: not shown
heavy 2: not shown
light: B1 light
notes: as for B3
B13: GpH7-A5/GpH7-B3 variant V266_09D/GpL16-k0 (antibody, human IgG1, kappa)
heavy 1: not shown
heavy 2: not shown
light: B1 light
notes: as for B3
B14: GpH7-A5/GpH7-B3 variant V266_10E/GpL16-k0 (antibody, human IgG1, kappa)
heavy 1: not shown
heavy 2: not shown
light: B1 light
notes: as for B3
B15: GpH7-A5/GpH7-B3 variant V266_11K/GpL16-k0 (antibody, human IgG1, kappa)
heavy 1: not shown
heavy 2: not shown
light: B1 light
notes: as for B3
B16: GpH7-A5/GpH7-B3 variant V266_13S/GpL16-k0 (antibody, human IgG1, kappa)
heavy 1: not shown
heavy 2: not shown
light: B1 light
notes: as for B3

biological target: T3, FcγRIa extracellular domain with C-terminal His tag (human, UniProt P12314 16-292); experiment: SPR, binding relative to GpH7-A5/GpH7-B3/GpL16-k0 = 100
T3 construct: extracellular domain; soluble analyte in Biacore; also called FcgRI; not shown: His tag at the C terminus
T3 sequence (P12314 16-292): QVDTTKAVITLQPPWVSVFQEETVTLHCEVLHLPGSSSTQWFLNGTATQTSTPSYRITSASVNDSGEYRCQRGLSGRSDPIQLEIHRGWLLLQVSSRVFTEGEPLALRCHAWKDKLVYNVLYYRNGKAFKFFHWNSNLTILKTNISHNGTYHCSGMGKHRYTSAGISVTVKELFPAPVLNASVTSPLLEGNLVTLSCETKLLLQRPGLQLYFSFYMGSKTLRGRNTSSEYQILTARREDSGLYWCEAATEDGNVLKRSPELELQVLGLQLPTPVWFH

Binder | He/Con_1a
B1 | 105 % of control
B2 | 105 % of control

biological target: T1, FcγRIIb extracellular domain with …; experiment: as above

Binder | He/Con_2b
B1 | 44.3 % of control
B2 | 42.5 % of control

biological target: T3, FcγRIa extracellular domain with …; experiment: SPR; He/Con_1a divided by He/Con_2b (FcγRIa against FcγRIIb)
Procedure: The heterodimerized antibodies He Abs in which one of the H chains was introduced with an alteration were assayed for their binding activities to each activating FcγR and inhibitory FcγR according to the method described in Example 4. […] The activating FcγRs in FIGS. 26, 27, 28, and 29 are FcγRIa, FcγRIIa (R), FcγRIIa (H), and FcγRIIIa, respectively.
Analysis of interaction between objective antibody and the FcγR was carried out using Biacore T100 (GE Healthcare). HBS-EP+ (GE Healthcare) was used as the running buffer, and the measurement temperature was set to 25° C. Chips produced by immobilizing the antigen peptide by the amine coupling method to a Series S Sencor Chip CM5 (GE Healthcare), or alternatively, chips produced by allowing preliminarily biotinylated antigen peptides to interact with and immobilize onto a Series S Sensor Chip SA (certified) (GE Healthcare) were used. Antibodies of interest were captured onto an antigen peptide-immobilized chip, and allowed to interact to each FcγR diluted with running buffer. To regenerate and repeatedly use the chip, the antibodies captured on the chip were washed off by reacting 10 mM glycine-HCl, pH 1.5.

Binder | He_1a/2b (Ia/IIb) [ratio]
B1 | 2.37
B2 | 2.47

biological target: T4, FcγRIa extracellular domain with C-terminal His tag (human, UniProt P12314 16-292); experiment: SPR (Biacore), captured antibody, FcγR as analyte; relative binding
T4 construct: extracellular domain; expressed in FreeStyle293 cells; analyte in Biacore; also called FcgRI; 1a
T4 sequence (P12314 16-292): as above

Binder | He/Con_1a
B3 | 78.5 % of HeCon Ab (GpH7-A5/GpH7-B3/GpL16-k0 = 100)
B4 | 44.3 % of HeCon Ab (GpH7-A5/GpH7-B3/GpL16-k0 = 100)
B5 | 85.4 % of HeCon Ab (GpH7-A5/GpH7-B3/GpL16-k0 = 100)
B6 | 27.7 % of HeCon Ab (GpH7-A5/GpH7-B3/GpL16-k0 = 100)
B7 | 88.8 % of HeCon Ab (GpH7-A5/GpH7-B3/GpL16-k0 = 100)
B8 | 51.5 % of HeCon Ab (GpH7-A5/GpH7-B3/GpL16-k0 = 100)
B9 | 92.7 % of HeCon Ab (GpH7-A5/GpH7-B3/GpL16-k0 = 100)
B10 | 91.3 % of HeCon Ab (GpH7-A5/GpH7-B3/GpL16-k0 = 100)
B11 | 96.7 % of HeCon Ab (GpH7-A5/GpH7-B3/GpL16-k0 = 100)
B12 | 71.9 % of HeCon Ab (GpH7-A5/GpH7-B3/GpL16-k0 = 100)
B13 | 79.3 % of HeCon Ab (GpH7-A5/GpH7-B3/GpL16-k0 = 100)
B14 | 81.9 % of HeCon Ab (GpH7-A5/GpH7-B3/GpL16-k0 = 100)
B15 | 64.4 % of HeCon Ab (GpH7-A5/GpH7-B3/GpL16-k0 = 100)
B16 | 90.6 % of HeCon Ab (GpH7-A5/GpH7-B3/GpL16-k0 = 100)

biological target: T2, FcγRIIb extracellular domain with …; experiment: as above

Binder | He/Con_2b
B3 | 16 % of HeCon Ab (GpH7-A5/GpH7-B3/GpL16-k0 = 100)
B4 | 0.6 % of HeCon Ab (GpH7-A5/GpH7-B3/GpL16-k0 = 100)
B5 | 38.3 % of HeCon Ab (GpH7-A5/GpH7-B3/GpL16-k0 = 100)
B6 | 6.1 % of HeCon Ab (GpH7-A5/GpH7-B3/GpL16-k0 = 100)
B7 | 33.4 % of HeCon Ab (GpH7-A5/GpH7-B3/GpL16-k0 = 100)
B8 | 1.1 % of HeCon Ab (GpH7-A5/GpH7-B3/GpL16-k0 = 100)
B9 | 45.1 % of HeCon Ab (GpH7-A5/GpH7-B3/GpL16-k0 = 100)
B10 | 51.5 % of HeCon Ab (GpH7-A5/GpH7-B3/GpL16-k0 = 100)
B11 | 57.6 % of HeCon Ab (GpH7-A5/GpH7-B3/GpL16-k0 = 100)
B12 | 0.4 % of HeCon Ab (GpH7-A5/GpH7-B3/GpL16-k0 = 100)
B13 | 10.1 % of HeCon Ab (GpH7-A5/GpH7-B3/GpL16-k0 = 100)
B14 | 15.2 % of HeCon Ab (GpH7-A5/GpH7-B3/GpL16-k0 = 100)
B15 | 1 % of HeCon Ab (GpH7-A5/GpH7-B3/GpL16-k0 = 100)
B16 | 54.4 % of HeCon Ab (GpH7-A5/GpH7-B3/GpL16-k0 = 100)

biological target: T4, FcγRIa extracellular domain with …; experiment: SPR (Biacore); He/Con_1a divided by He/Con_2b (FcγRIIb as reference)

Binder | He_1a/2b (Ia/IIb) [ratio]
B3 | 4.9
B4 | 73.5
B5 | 2.23
B6 | 4.52
B7 | 2.66
B8 | 45.6
B9 | 2.06
B10 | 1.77
B11 | 1.68
B12 | 205
B13 | 7.88
B14 | 5.37
B15 | 63.5
B16 | 1.67
